Like-named read-outs stand apart in the source and are kept apart here. Bridges are numbered along the chain shown (N, C = ends). [ ]: non-standard residue; d: D form. hTyr = N[C@@H](CCc1ccc(O)cc1)C(=O)O; Tle = CC(C)(C)[C@H](N)C(=O)O; 3Py6NH2 = not defined here; 4Py2NH2 = not defined here; F4aao = not defined here; Atb = not defined here; Yph = not defined here
How the values were obtained:
Experiment in all cases: cell-based or functional assay
[1] = molecular target: T1, VEGFR-2 (human, UniProt P35968 20-1356)
[2] = molecular target: T1, VEGFR-2; remark: listed apart in the source
[3] = molecular target: T1, VEGFR-2; remark: listed apart in the source

T1 sequence (P35968 20-1356): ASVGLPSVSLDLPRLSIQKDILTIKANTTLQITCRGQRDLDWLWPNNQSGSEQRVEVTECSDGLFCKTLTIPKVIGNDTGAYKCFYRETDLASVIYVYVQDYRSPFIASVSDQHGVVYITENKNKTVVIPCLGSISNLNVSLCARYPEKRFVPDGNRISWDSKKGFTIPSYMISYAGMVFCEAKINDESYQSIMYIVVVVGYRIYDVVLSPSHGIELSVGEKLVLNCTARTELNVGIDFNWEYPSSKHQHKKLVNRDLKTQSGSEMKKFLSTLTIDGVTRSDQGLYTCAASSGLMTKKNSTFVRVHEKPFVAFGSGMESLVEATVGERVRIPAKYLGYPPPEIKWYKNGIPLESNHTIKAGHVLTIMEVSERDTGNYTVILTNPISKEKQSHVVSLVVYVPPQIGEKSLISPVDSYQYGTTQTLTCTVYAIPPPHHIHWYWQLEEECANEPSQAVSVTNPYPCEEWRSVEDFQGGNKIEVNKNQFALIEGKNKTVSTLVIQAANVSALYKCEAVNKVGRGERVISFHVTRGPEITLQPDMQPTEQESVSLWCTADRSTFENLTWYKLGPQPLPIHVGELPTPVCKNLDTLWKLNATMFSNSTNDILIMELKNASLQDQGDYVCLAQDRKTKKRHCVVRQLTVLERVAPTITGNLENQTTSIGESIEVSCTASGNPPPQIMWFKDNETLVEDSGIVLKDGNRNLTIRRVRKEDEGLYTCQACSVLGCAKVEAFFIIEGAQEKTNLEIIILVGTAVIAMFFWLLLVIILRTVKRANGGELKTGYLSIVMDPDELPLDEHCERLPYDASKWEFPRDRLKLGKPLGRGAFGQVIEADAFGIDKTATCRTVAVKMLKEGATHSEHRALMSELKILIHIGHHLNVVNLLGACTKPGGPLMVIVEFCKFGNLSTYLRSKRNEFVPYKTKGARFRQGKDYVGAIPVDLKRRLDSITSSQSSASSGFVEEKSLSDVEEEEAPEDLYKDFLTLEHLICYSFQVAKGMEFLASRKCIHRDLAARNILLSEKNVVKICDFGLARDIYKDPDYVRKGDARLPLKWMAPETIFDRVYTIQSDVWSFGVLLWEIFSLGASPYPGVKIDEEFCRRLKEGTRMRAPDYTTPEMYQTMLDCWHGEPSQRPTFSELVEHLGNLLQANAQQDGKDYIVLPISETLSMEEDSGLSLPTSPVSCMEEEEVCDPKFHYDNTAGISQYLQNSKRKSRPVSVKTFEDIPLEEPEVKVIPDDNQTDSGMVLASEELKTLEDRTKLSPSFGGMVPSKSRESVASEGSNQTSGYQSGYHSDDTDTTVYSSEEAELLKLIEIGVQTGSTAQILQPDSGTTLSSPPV

| pERK Assay Results (AlphaLISA p-Erk1/2, HUVEC) [1] | proliferation (HUVEC, CellTiter-Glo) [2] | pERK Assay Results (AlphaLISA p-Erk1/2, HUVEC) [3] | Binder |
| --- | --- | --- | --- |
| ≥ 50 % activity at 5 nM | ≥ 50 % activity at 5 nM |  | {CH2CO}-WW[Tle]DVKDDLY[F4G]VDCG-NH2 (thioether N-14; also: homodimer: Lys6 joined to Lys6 of second copy by OCOPEG17OCO (Linker Structure No. 6)) [Peptide complex Dimer Structure No. 51] |
| ≥ 50 % activity at 5 nM | ≥ 50 % activity at 5 nM |  | {CH2CO}-WW[Tle]DVKDD[Atb]Y[F4G][hTyr]DCG-NH2 (thioether N-14; reading uncertain; also: dimer: Lys6 joined to Lys6 of second copy by OCOPEG17OCO (Linker Structure No. 6)) [Peptide complex Dimer Structure No. 53] |
| ≥ 50 % activity at 20 nM | ≥ 50 % activity at 1.25 nM |  | {CH2CO}-[W7N]W[Tle]DVKDDLYF[hTyr]DCG-NH2 (thioether N-14; also: homodimer: Lys6 joined to Lys6 of second copy by cPEG17c (Linker Structure No. 4)) [Peptide complex Dimer Structure No. 46] |
| ≥ 50 % activity at 20 nM | ≥ 50 % activity at 5 nM |  | {CH2CO}-WW[Tle]DVKDDLY[F4G][hTyr]DCG-NH2 (thioether N-14; also: homodimer: Lys6 joined to Lys6 of second copy by cPEG17c (Linker Structure No. 4)) [Peptide complex Dimer Structure No. 45] |
| ≥ 50 % activity at 5 nM | ≥ 50 % activity at 5 nM |  | {CH2CO}-WW[Tle]DVKDD[Atb]YF[hTyr]DCG-NH2 (thioether N-14; reading uncertain; also: homodimer: Lys6 joined to Lys6 of second copy by OCOPEG17OCO (Linker Structure No. 6)) [Peptide complex Dimer Structure No. 52] |
| ≥ 50 % activity at 5 nM | ≥ 50 % activity at 5 nM |  | {CH2CO}-WW[Tle]DVKDDLY[F4G]VDCG-NH2 (thioether N-14; also: homodimer: Lys6 joined to Lys6 of second copy by cPEG17c (Linker Structure No. 4)) [Peptide complex Dimer Structure No. 43] |
| ≥ 50 % activity at 20 nM | ≥ 50 % activity at 5 nM |  | {CH2CO}-WW[Tle]DVKDD[Atb]YF[hTyr]DCG-NH2 (thioether N-14; reading uncertain; also: homodimer: Lys6 joined to Lys6 of second copy by OCOPEG13OCO (Linker Structure No. 5)) [Peptide complex Dimer Structure No. 49] |
| ≥ 50 % activity at 20 nM | ≥ 50 % activity at 1.25 nM |  | {CH2CO}-WW[Tle]DVKNDLYF[hTyr]DCG-NH2 (thioether N-14; also: homodimer: Lys6 joined to Lys6 of second copy by cPEG17c (Linker Structure No. 4)) [Peptide complex Dimer Structure No. 47] |

Second part, the binder before the results:

| Binder | pERK Assay Results (AlphaLISA p-Erk1/2, HUVEC) [1] | proliferation (HUVEC, CellTiter-Glo) [2] | pERK Assay Results (AlphaLISA p-Erk1/2, HUVEC) [3] |
| --- | --- | --- | --- |
| {CH2CO}-WWVDVKDDLY[F4G]VDCG-NH2 (thioether N-14; not fully specified (residue 6); also: homodimer: Lys6 joined to Lys6 of second copy by cPEG17c (Linker Structure No. 4)) [Peptide complex Dimer Structure No. 17] |  |  | ≥ 50 % activity at 100 nM |
| {CH2CO}-WWVDVKDDLY[Yph]VDCG-NH2 (thioether N-14; not fully specified (residue 6); reading uncertain; also: homodimer: Lys6 joined to Lys6 of second copy by cPEG17c (Linker Structure No. 4)) [Peptide complex Dimer Structure No. 16] |  |  | ≥ 50 % activity at 100 nM |
| {CH2CO}-[3Py6NH2]W[Tle]DVKDDLYF[hTyr]DCG-NH2 (thioether N-14; not fully specified (residue 6); reading uncertain; also: homodimer: Lys6 joined to Lys6 of second copy by cPEG17c (Linker Structure No. 4)) [Peptide complex Dimer Structure No. 23] |  |  | ≥ 50 % activity at 10 nM |
| {CH2CO}-WW[Tle]D[alT]KDDLYF[hTyr]DCG-NH2 (thioether N-14; not fully specified (residue 6); also: homodimer: Lys6 joined to Lys6 of second copy by cPEG17c (Linker Structure No. 4)) [Peptide complex Dimer Structure No. 27] | ≥ 50 % activity at 10 nM | ≥ 50 % activity at 10 nM |  |
| {CH2CO}-WW[Tle]DVKDDLY[Yph]VDCG-NH2 (thioether N-14; not fully specified (residue 6); reading uncertain; also: homodimer: Lys6 joined to Lys6 of second copy by cPEG17c (Linker Structure No. 4)) [Peptide complex Dimer Structure No. 19] |  |  | ≥ 50 % activity at 100 nM |
| {CH2CO}-WWVDVKDDLYF[hTyr]DCG-NH2 (thioether N-14; not fully specified (residue 6); also: homodimer: Lys6 joined to Lys6 of second copy by cPEG17c (Linker Structure No. 4)) [Peptide complex Dimer Structure No. 18] |  |  | ≥ 50 % activity at 100 nM |
| {CH2CO}-[4Py2NH2]W[Tle]DVKDDLYF[hTyr]DCG-NH2 (thioether N-14; not fully specified (residue 6); reading uncertain; also: homodimer: Lys6 joined to Lys6 of second copy by cPEG17c (Linker Structure No. 4)) [Peptide complex Dimer Structure No. 22] |  |  | ≥ 50 % activity at 10 nM |
| {CH2CO}-WW[Tle]DVKDDLY[Yph][hTyr]DCG-NH2 (thioether N-14; not fully specified (residue 6); reading uncertain; also: homodimer: Lys6 joined to Lys6 of second copy by cPEG17c (Linker Structure No. 4)) [Peptide complex Dimer Structure No. 20] |  |  | ≥ 50 % activity at 10 nM |
| {CH2CO}-[Hcit]W[Tle]DVKDDLYF[hTyr]DCG-NH2 (thioether N-14; not fully specified (residue 6); also: homodimer: Lys6 joined to Lys6 of second copy by cPEG17c (Linker Structure No. 4)) [Peptide complex Dimer Structure No. 21] |  |  | ≥ 50 % activity at 10 nM |
| {CH2CO}-[F4aao]W[Tle]DVKDDLYF[hTyr]DCG-NH2 (thioether N-14; not fully specified (residue 6); reading uncertain; also: homodimer: Lys6 joined to Lys6 of second copy by cPEG17c (Linker Structure No. 4)) [Peptide complex Dimer Structure No. 24] |  |  | ≥ 50 % activity at 10 nM |
